In publication PMC12440814:
Residue numbers refer to the chain shown, from its start.

How the values were obtained:
[1] = target: T1, CtTrl1-LIG WT (Chaetomium thermophilum, UniProt G0S6G2 1-414); experiment: EMSA
T1 sequence: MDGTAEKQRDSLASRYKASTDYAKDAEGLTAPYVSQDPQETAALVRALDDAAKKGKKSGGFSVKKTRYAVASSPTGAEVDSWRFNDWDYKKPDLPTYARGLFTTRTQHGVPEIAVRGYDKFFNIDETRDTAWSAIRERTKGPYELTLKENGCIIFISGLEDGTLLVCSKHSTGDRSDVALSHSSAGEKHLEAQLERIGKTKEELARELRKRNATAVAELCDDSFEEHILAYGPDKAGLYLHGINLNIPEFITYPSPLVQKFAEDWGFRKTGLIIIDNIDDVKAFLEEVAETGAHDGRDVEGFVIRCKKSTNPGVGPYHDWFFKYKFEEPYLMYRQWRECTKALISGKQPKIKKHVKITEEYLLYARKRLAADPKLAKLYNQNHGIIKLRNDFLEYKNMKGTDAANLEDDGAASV

[2] = target: T1, CtTrl1-LIG WT; experiment: EMSA; remark: listed apart in the source
[3] = target: T2, CtTrl1-LIG S171A (Chaetomium thermophilum, UniProt G0S6G2 1-414, S171A); experiment: EMSA
T2 sequence: T1 sequence with S171A

[4] = target: T3, CtTrl1-LIG H170A (Chaetomium thermophilum, UniProt G0S6G2 1-414, H170A); experiment: EMSA
T3 sequence: T1 sequence with H170A

[5] = target: T4, CtTrl1-LIG K148N (Chaetomium thermophilum, UniProt G0S6G2 1-414, K148N); experiment: EMSA
T4 sequence: T1 sequence with K148N

[6] = target: T1, CtTrl1-LIG WT; experiment: X-ray crystallography

B1: ASL-4U-5C (structured_RNA)
RNA: CUCUGGAUUUUGCCAGACUGAAG
modifications: 5'-phosphate and terminal phosphate presumed as in ASL-4U
- binding result [1]: binds

B2: ASL-4U (structured_RNA)
RNA: AUCUGGAUUUUGCCAGACUGAAG
modifications: 5'-phosphate; terminal phosphate at 3' end nucleotide (2'-P/3'-OH)
- binding result [2]: binds
- binding result [3]: binds
- binding result [4]: binds
- binding result [5]: binds

B3: 3'exon-7nt (dsRNA)
RNA 1: AUCUGGA
RNA 2: AUCUGGA
modifications: 5'-phosphate; one strand end 5'-adenylylated (AppRNA) in the crystal
- binding result [6]: binds
